Data as given in patent US20250109199A1.

Experiments:
[1] = target: EEEV virus-like particles (VLPs), strain PE-6 (Eastern equine encephalitis virus, strain PE-6)
[2] = target: EEEV virus-like particles (VLPs), strain FL93-939, wild type (Eastern equine encephalitis virus, strain FL93-939)

monovalent VLDLR LA(1-5) (from UniProt P98155 28-231) (receptor)
Kd [1]: 14.5 nM

monovalent VLDLR LA(1-6) (from UniProt P98155 28-275) (receptor)
Kd [1]: 15 nM
Kd [2]: 50 nM

monovalent VLDLR LA(1-2) (from UniProt P98155 31-110) (receptor)
Kd [1]: 1000 nM
fold higher affinity than LA(2-3) [1]: 10 fold

monovalent VLDLR LA(2-3) (from UniProt P98155 70-151) (receptor)
Kd [1]: 14000 nM

monovalent VLDLR LA(1-3) (from UniProt P98155 31-151) (receptor)
Kd [1]: 33.8 nM

monovalent VLDLR LA(1-4) (from UniProt P98155 28-190) (receptor)
Kd [1]: 37 nM
